In article PMC7954794, “Protein context shapes the specificity of SH3 domain-mediated interactions in vivo” (Nature Communications, 2021):

Experiments:
[1] = test system: 575 putative partners (preys) of 22 WT SH3-containing proteins; test: DHFR-PCA on solid medium, WT and SH3-deleted baits (Fig. 1B); format: cell-based, Saccharomyces cerevisiae; design: key to Score: 0: SH3-independent; 1: SH3-dependent PPIs; 2: SH3-inhibited PPIs; details: for medrep (log2 median colony size normalized to plate background, PCA score): label = prey; for Ratio (SH3-deleted/WT medrep): only significant differences shown, PPIs completely lost have a ratio of 0.1, gained PPIs 2.5
Excerpt: To assess the requirement of SH3 domains for PPIs in vivo, we first measured binary interactions between 22 WT SH3-containing proteins (Supplementary Fig. 1A) as baits and 575 putative partners from their interconnected signaling networks using the dihydrofolate reductase protein–fragment complementation assay (DHFR-PCA) in the budding yeast Saccharomyces cerevisiae. About 33% (202/607) of the PPIs detected were described before, mostly by direct methods (Supplementary Fig. 1B, C)[11]. We repeated the experiments with baits in which the SH3s were individually replaced with a flexible linker by genome editing (SH3 domain deletion/stuffing, Fig. 1A). The stuffer DNA sequence ([…]) codes for a small flexible poly-Gly with Ser peptide ([…]) that is inspired by previous experiments[12],[13]. About a third of the SH3-containing protein interactome is qualitatively or quantitatively SH3-dependent (171 PPIs out of 607, Fig. 1B and Supplementary Fig. 1B, C). We validated the vast majority of the quantitative changes in low-throughput experiments and excluded that this is simply due to changes in protein abundance in most cases (Supplementary Fig. 1D–G). SH3-binding motifs[14] are more frequent in the SH3-dependent PPI partners when compared to sequences from random proteins, SH3-independent PPI partners or PPI partners that are stronger or gained following SH3 deletions (p values = 1.5 × 10^−17, 0.0038 and 2.1 × 10^−08, respectively; Mann–Whitney test, one-tailed, Fig. 1C). The changes we measure are therefore enriched for PPIs that depend on the direct interactions of the domains with the PPI partners.
The complete list of strains, primers, and gRNAs used in this study can be found in Supplementary Tables 1–3. All constructed yeast strains were validated by polymerase chain reaction (PCR) and confirmed by Sanger sequencing of the locus of interest. Bait strains for the DHFR-PCA experiments were constructed as follows. The genes of interest were fused at their genomic 3′ end by replacing the stop codon with a linker ([…]), the DHFR F[1,2] followed by a smaller linker (GGGGS), a 1× FLAG tag ([…]) and the NATMX4 resistance cassette via homologous recombination (all amplified from pAG25-DHFR[1,2]-linker-FLAG). The set of 615 prey strains (DHFR F[3] fusions in the BY4742 background) were retrieved from the Yeast Protein Interactome Collection[43] with the exception of 73 that were reconstructed (Supplementary Tables 1 and 2). Knockout strains were taken from the yeast knockout collection except for ABP1, BEM1, BZZ1, and SLA1, which were reconstructed by replacing the ORFs with the NATMX4 resistance cassette by homologous recombination in the BY4741 background.
Yeast SH3 domain genomic sequences were replaced by CRISPR–Cas9 genome editing. Each SH3 domain (as defined by the SMART database V8.0 except for Ysc84 SH3 (as defined by PROSITE), see Source Data for all SH3 sequences and Supplementary Table 1 for primers used) was specifically targeted by one gRNA[46]. Yeast competent cells were co-transformed with a pCAS plasmid (Addgene plasmid 60847[47]) expressing both the gRNA of interest and Streptococcus pyogenes Cas9[46] and a donor DNA sequence (stuffer) with 60 bp homology arms surrounding the SH3 DNA sequence. The Stuffer DNA was either PCR amplified or digested from a plasmid. The stuffer DNA sequence ([…]) codes for a small flexible linker ([…]) inspired by protein linkers used in structural biology[12],[13]. This type of linker is frequently used for fusing proteins without affecting the structure of the linked proteins.
The overall DHFR-PCA pipeline is based on Tarassov et al.[43] and the procedures have also been published as a visualized protocol. The screens were performed with robotically manipulated pin tools (BM5-SC1, S&P Robotics Inc.). First, the preys were cherry-picked from 96-well plates to omnitrays in a 384 format on YPD + HPH solid media. […]

ABP1 = test: DHFR-PCA on solid medium, bait ABP1 (Fig. 1B); format: cell-based, Saccharomyces cerevisiae; details: bait ABP1, label = prey; for medrep (log2 median colony size normalized to plate background, PCA score): 2-4 replicates
Excerpt: Supplement 41467_2021_21873_MOESM8_ESM.xlsx, sheet "Fig1B" | column: medsize; medrep; Ratio; Score

[2] = bait SLA1-2, DHFR-PCA, Replicates 4 (2 for YCR009C, YDR388W)
[3] = bait SLA1-3, DHFR-PCA, Replicates 4 (2 for YCR009C, YDR388W, YIL033C)

Row | Molecule | medrep (log2 median colony size normalized to plate background, PCA score) [1, 2] | Score ([1]; bait SLA1-2, label = prey) | Ratio (SH3-deleted/WT medrep) ([1]; bait SLA1-2, label = prey) | medrep (log2 median colony size normalized to plate background, PCA score) [1, 3] | Score ([1]; bait SLA1-3, label = prey) | medrep (log2 median colony size normalized to plate background, PCA score) (ABP1) | Ratio (SH3-deleted/WT medrep) ([1]; bait SLA1-3, label = prey) | Ratio (SH3-deleted/WT medrep) (ABP1; only significant differences showed, PPIs completely lost have a ratio of 0.1 and the gained PPIs 2.5)
1 | YNL307C (protein, UniProt P21965 2-375, looked up) Protein kinase MCK1: STEEQNGVPLQRGSEFIADDVTSNKSNNTRRMLVKEYRKIGRGAFGTVVQAYLTQDKKNWLGPFAIKKVPAHTEYKSRELQILRIADHPNIVKLQYFFTHLSPQDNKVYQHLAMECLPETLQIEINRYVTNKLEMPLKHIRLYTYQIARGMLYLHGLGVCHRDIKPSNVLVDPETGVLKICDFGSAKKLEHNQPSISYICSRFYRAPELIIGCTQYTTQIDIWGLGCVMGEMLIGKAIFQGQEPLLQLREIAKLLGPPDKRFIFFSNPAYDGPLFSKPLFSGSSQQRFEKYFGHSGPDGIDLLMKILVYEPQQRLSPRRILAHQFFNELRNDDTFLPRGFTEPIKLPNLFDFNDFELQILGEFADKIKPTKVAE | 1.966 | 1 | 0.1 | 1.966 | 0 | 1.521 |  | 
2 | YNL106C (protein, UniProt P50942 1-1183, looked up) Polyphosphatidylinositol …: MKILLSKQQTRKIAIVSETHGLVFRPINSKNSRRSTCAVELVPKAELNGNGFRRLSNHEIYGFIGLIEIEGLMFIATITGKSKVAQPIPNKTVNKIYAVDFFCLNNSKWDFMDIDSSGYPIVTNDGDFAISSPPSISTHSSRSSLRSSSSRSLNAQEQAPKHPCHELRKLLSNGSFYYSTDFDLTCTLQKRGFTEHSLSFDDFDREFMWNSFLMDEIITYRDRLDVTAKELLDQRGFLTTVIRGFAETIFSYINRLKVGLTIISRQSWKRAGTRFNARGIDDDGHVANFVETEMIMYSSQYCYAFTQIRGSLPIFWEQDTSLISPKIQITRSVEATQPTFDEHFIRLFKKYGPVHIINLLSTKSSEIQLSRRYKEQLKNSEKMKIGRDVFLTSFDFHRETSQDGFAAASRIIPKIRNTILDAGYFSYDVKEGRLISEQDGVFRTNCLDCLDRTNLIQQTISLAVFKLFLEDFRLVKPSSFIDDNEFVQKVNALWADNGDQISQIYTGTNALKSSYSRKGKMSFSGALSDATKSVSRMYINNFVDKGKQQNIDTLLGKLPHQQVVELYDPICEYVNERLLESEEKFTTHSNINLFVGTFNVNGNSRRADLSKWLFPIGDKFKPDVVVLGLQEVIELTAGSILNADYTKSSFWETMVTDCLNQYEEKYLLLRVEQMSSLLILFFARSDRAYNIKEVGGSTKKTGFGGITGNKGAVAIRFDYGATSFCFVNTHLSAGASNIDERRNDYNNIYRNITFPRSKTIPHHDSLFWLGDLNYRITLTNDEVRRELRAQKDGYIDRLLQYDQLTQEINEGVVFQGFKEPTLQFRPTYKYDYGTDNYDTSEKARTPSWTDRIIYKGENLHPLAYSDAPLKISDHKPVYAAYRANVKFVDEKEKLNLVEKLYAEYKNTHPEALTTGPDELSHARMEKQKESIPLDATVQSAGIKLIDLDDTSSCVSPLLSGPSPQPSVVGPGGLSNVSPDKSKLNVLPPPPPTSRHNKEPSSKLLSPTKEISIVSVSPRKGESNLPALERHSTPKPLPPVPALSLSKPVSLQKSSSELQHAKETIDNGKIVPRPCPPIRRKSSTAPDEISTSTKNSGVSTTEDPEPAKASTKPEKPPVVKKPHYLSVAANKLNTSQEHSIKVSPSNSKSEEELPCKKKSKPKVPAKNPELEKLSVHPLKPCDPN | 1.813 | 1 | 0.1 | 1.813 | 1 | 3.9733 | 0.1 | 
3 | YFR004W (protein, UniProt P43588 1-306, looked up) Ubiquitin carboxyl-terminal …: MERLQRLMMNSKVGSADTGRDDTKETVYISSIALLKMLKHGRAGVPMEVMGLMLGEFVDDYTVNVVDVFAMPQSGTGVSVEAVDDVFQAKMMDMLKQTGRDQMVVGWYHSHPGFGCWLSSVDVNTQKSFEQLNSRAVAVVVDPIQSVKGKVVIDAFRLIDTGALINNLEPRQTTSNTGLLNKANIQALIHGLNRHYYSLNIDYHKTAKETKMLMNLHKEQWQSGLKMYDYEEKEESNLAATKSMVKIAEQYSKRIEEEKELTEEELKTRYVGRQDPKKHLSETADETLENNIVSVLTAGVNSVAIK | 2.485 | 1 | 0.1 | 2.485 | 0 | 3.9898 |  | 1.738
4 | YNL229C (protein, UniProt P23202 2-354, looked up) Transcriptional regulator URE2: MNNNGNQVSNLSNALRQVNIGNRNSNTTTDQSNINFEFSTGVNNNNNNNSSSNNNNVQNNNSGRNGSQNNDNENNIKNTLEQHRQQQQAFSDMSHVEYSRITKFFQEQPLEGYTLFSHRSAPNGFKVAIVLSELGFHYNTIFLDFNLGEHRAPEFVSVNPNARVPALIDHGMDNLSIWESGAILLHLVNKYYKETGNPLLWSDDLADQSQINAWLFFQTSGHAPMIGQALHFRYFHSQKIASAVERYTDEVRRVYGVVEMALAERREALVMELDTENAAAYSAGTTPMSQSRFFDYPVWLVGDKLTIADLAFVPWNNVVDRIGINIKIEFPEVYKWTKHMMRRPAVIKALRGE | 1.546 | 1 | 0.1 | 1.546 | 0 | 1.889 |  | 
5 | YCR009C (protein, UniProt P25343 1-265, looked up) Reduced viability upon …: MSWEGFKKAINRAGHSVIIKNVDKTIDKEYDMEERRYKVLQRAGEALQKEAKGFLDSLRAVTASQTTIAEVISNLYDDSKYVAGGGYNVGNYYLQCVQDFDSETVKQLDGPLRETVLDPITKFSTYFKEIEEAIKKRDHKKQDFDAAKAKVRRLVDKPAKDASKLPRAEKELSLAKDIFENLNNQLKTELPQLVSLRVPYFDPSFEALIKIQLRFCTDGYTRLAQIQQYLDQQSRDDYANGLLDTKIEELLGQMTSLDICALGIK | 2.15 | 1 | 0.1 | 2.15 | 0 | 4.682 |  | 
